Experimental data from US20050101770A1 (SCHERING, published 2005).

T1: recombinant hIL-10Ra (hIL-10Ra): FLAG-tagged protein (human, UniProt Q13651 22-235)
T1 construct: The order of the receptor part and the FLAG tag is unknown; also called huIL-10Ra; not shown: FLAG tag
T1 sequence (looked up): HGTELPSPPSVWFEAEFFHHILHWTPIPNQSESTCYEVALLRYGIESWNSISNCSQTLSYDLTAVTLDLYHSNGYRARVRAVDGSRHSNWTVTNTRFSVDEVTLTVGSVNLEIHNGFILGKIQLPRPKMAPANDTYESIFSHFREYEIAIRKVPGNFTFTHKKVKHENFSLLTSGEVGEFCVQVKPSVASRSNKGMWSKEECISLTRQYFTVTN

B1: Monoclonal humanized antibody SCH 708980 to recombinant human IL-10 (humanized 12G8) (antibody, human IgG1, kappa, V domains shown)
VH: QVQLVESGGGVVQPGRSLRLSCAASGFTFSDYHMAWVRQAPGKGLEWVASITLDATYTYYRDSVRGRFTISRDNSKNTLYLQMNSLRAEDTAVYYCARHRGFSVWLDYWGQGTLVTVSS
VL: DIQMTQSPSSLSASVGDRVTITCKTSQNIFENLAWYQQKPGKAPKLLIYNASPLQAGVPSRFSGSGSGTDFTLTISSLQPEDFATYYCHQYYSGYTFGPGTKLELKR
notes: also called h12G8; hu12G8
B2: recombinant mouse IL-10 (mIL-10) (ligand, UniProt P18893 19-178, looked up)
chain: SRGQYSREDNNCTHFPVGQSHMLLELRTAFSQVKTFFQTKDQLDNILLTDSLMQDFKGYLGCQALSEMIQFYLVEVMPQAEKHGPEIKEHLNSLGEKLKTLRMRLRRCHRFLPCENKSKAVEQVKSDFNKLQDQGVYKAMNEFDIFINCIEAYMMIKMKS
B3: recombinant cyno IL-10 (cyno IL-10) (ligand, UniProt P79338 19-178, looked up)
chain: SPGQGTQSENSCTRFPGNLPHMLRDLRDAFSRVKTFFQMKDQLDNILLKESLLEDFKGYLGCQALSEMIQFYLEEVMPQAENHDPDIKEHVNSLGENLKTLRLRLRRCHRFLPCENKSKAVEQVKNAFSKLQEKGVYKAMSEFDIFINYIEAYMTMKIRN
B4: recombinant human IL-10 dimer (hIL-10-dimer) (ligand, UniProt P22301 19-178, looked up)
chain: SPGQGTQSENSCTHFPGNLPNMLRDLRDAFSRVKTFFQMKDQLDNLLLKESLLEDFKGYLGCQALSEMIQFYLEEVMPQAENQDPDIKAHVNSLGENLKTLRLRLRRCHRFLPCENKSKAVEQVKNAFNKLQEKGIYKAMSEFDIFINYIEAYMTMKIRN
notes: also called hu IL-10
B5: rat anti hIL-10 mAb 12G8 (r12G8): JES3.12G8 (antibody, V domains shown)
VH: EVQLVESGGGLVRPGGSLRLSCTASGFTFSDYHMAWVRQSPDKGLEWVASITLDATYTYYRDSVRGRFTISRNNAKTTLYLQMDSLRSEDTATFYCTRHRGFSVWLDYWGQGVMVTVSS
VL: DIQMTQSPSLLSASVGDRVTLNCKTSQNIFENLAWYQQKLREPPKLLIFNASPLQAGIPSRFSGSGSGTDFTLTITSLQPEDVATYFCHQYYSGYTFGPGTKLELKR
notes: Rat monoclonal antibody; also called Rat 12G8; JES.12G8

Columns and labels:
[1] = molecular target: B2; test: KinExA, solution equilibrium, mIL-10 run #2
Method: (§1) The equilibrium dissociation constant (Kd) for humanized antibody SCH 708980 was determined using KinExA 3000 (Sapidyne Instruments Inc.). KinExA uses the principle of the Kinetic Exclusion Assay method based on measuring the concentration of uncomplexed antibody in a mixture of antibody, antigen and antibody-antigen complex. The concentration of free antibody was measured by exposing the mixture to a solid-phase immobilized antigen for a very brief period of time. In practice, this was accomplished by flowing the solution phase antigen-antibody mixture past antigen coated particles trapped in a flow cell. Data generated by the instrument were analyzed using custom software. Equilibrium constants were calculated using a mathematical theory based on the following assumptions: [0139] 1. The binding follows the reversible binding equation for equilibrium: Kₒₙ[Ab][Ag]=Koff[AbAg] [0140] 2. Antibody and antigen bind 1:1, and total antibody equals antigen-antibody complex plus free antibody [0141] 3. Instrument signal is linearly related to free antibody concentration
(§2) For mIL-10 runs the following conditions were used: [0154] […] Sample flow rate: 0.25 ml/min [0156] Label volume: 0.5 ml [0157] Label flow rate: […] [0158] mAb conc.: 1 nM [0159] Highest Ag (mIL-10) conc.: 50 nM [0160] Lowest Ag (mIL-10) conc.: 48.8 pM […]

[2] = molecular target: B2; test: KinExA, solution equilibrium, mIL-10 run #3
Method: as §1, §2

[3] = molecular target: B4; test: KinExA, solution equilibrium, hIL-10 run #2
Method: as §1
(§3) Experimental conditions: All runs were done in duplicate. For hIL-10 runs the following conditions were used: [0145] Sample volume: 1.5 ml [0146] Sample flow rate: 0.25 ml/min [0147] Label volume: 0.5 ml [0148] Label flow rate: 0.25 ml/min [0149] mAb conc.: 0.1 nM [0150] Highest Ag (hlL-10) conc.: 4.0 nM [0151] […]

[4] = molecular target: B4; test: KinExA, solution equilibrium, hIL-10 run #3
Method: as §1, §3

[5] = molecular target: B3; test: KinExA, mean ± S.D. (n) of the runs of Table 14
[6] = molecular target: B4; test: KinExA, mean ± S.D. (n) of the runs of Table 14
[7] = molecular target: B2; test: KinExA, mean ± S.D. (n) of the runs of Table 14
[8] = molecular target: B2; test: KinExA, solution equilibrium, mIL-10 run #1
Method: as §1, §2

[9] = molecular target: B3; test: Biacore, mean ± S.D. (n); format not described
[10] = molecular target: B4; test: Biacore, mean ± S.D. (n); format not described
[11] = molecular target: B2; test: Biacore, mean ± S.D. (n); format not described
[12] = molecular target: B3; test: KinExA, solution equilibrium, cyno IL-10 run #2
Method: as §1
(§4) For cyno IL-10 runs the following conditions were used: [0163] Sample volume: 2 ml [0164] Sample flow rate: 0.25 ml/min [0165] Label volume: 1 ml [0166] Label flow rate: 0.25 ml/min [0167] mAb conc.: 0.1 nM [0168] Highest Ag (mIL-10) conc.: 5.0 nM [0169] Lowest Ag (mIL-10) conc.: 4.88 pM […]

[13] = molecular target: B4; test: KinExA, solution equilibrium, hIL-10 run #1
Method: as §1, §3

[14] = molecular target: B3; test: KinExA, solution equilibrium, cyno IL-10 run #3
Method: as §1, §4

[15] = molecular target: B3; test: KinExA, solution equilibrium, cyno IL-10 run #1
Method: as §1, §4

[16] = molecular target: B1; test: competitive ECLA (IGEN): unlabeled IL-10 varied, competitor hIL-10-biotin
Source text: (§5) Materials used. 96 well Polypropylene plates (Costar, Cat. No. 3365, Fisher Sci. Cat. No. 07200697); assay buffer of 0.1% BSA, 0.05% tween 20, PBS pH 7.5; paramagnetic beads (Streptavidin-Dynabeads, Igen, Inc., Cat. No. 110029); recombinant human IL-10 dimer (hIL-10-dimer); recombinant human IL-10-monomer (hlL-10-mono); recombinant mouse IL-10 (mIL-10); recombinant cyno IL-10 (cyno IL-10); and recombinant hIL-10Ra (hL-10Ra): FLAG-tagged protein. Ori-Tag labeled anti-FLAG M2 monoclonal antibodies were prepared using Ori-Tag-NHS ester (Igen, Inc. Cat. No. 110034) according to manufacturer's protocol (OriTag label: IgG challenge ratio 8:1). Anti-Flag M2 monoclonal antibodies were purchased from Sigma (Cat. No. F3165). Ori-Tag labeled anti hIgG 1A2 monoclonal antibodies were prepared as above using rat anti hIgG monoclonal antibodies. Ori-Tag labeled anti rat IgG antibodies were prepared as above from polyclonal Goat anti rat IgG (H+L) antibodies (Jackson Immunoresearch Laboratories, Inc. PA, Cat. No. 112-005-143). Biotinylated recombinant human IL-10 (hIL-10-biotin) was prepared using TFP-PEO-biotin (Pierce, Cat. No. 21219) according to manufacturer's recommendations (Pierce bulletin 0874). The rat anti hIL-10 mAb 12G8 (r12G8): JES3.12G8 and humanized anti hIL-10 mAb 12G8 (hl2G8-1) were prepared as described herein.
(§6) Protocol. ⅓ serial dilutions in 50 microliters of the assay buffer were made in 96-well microtiter plate for all unlabeled IL-10 preparations (mIL-10, cyno IL-10, hIL-10 dimer, hIL-10 mono) starting with 3 μg/ml in the first well. All samples were run in duplicates. 50 μl of hIL-10-biotin at 25 ng/ml was added to each well, followed by the addition of either hIL-10Ra (50 μl at 100 ng/ml) or […] (50 μl at 10 ng/ml). 50 microliters of Ori-Tag conjugated secondary antibodies was added to each well at 500 ng/ml conc. For hIL-10Ra, r12G8 and h12G8 the following Ori-Tag conjugated were used accordingly: anti-FLAG M2-OriTag, anti-rat IgG-OriTag and anti hIgG 1A2-OriTag. Finally to each well 50 μl of Streptavidin-Dynabeads at 0.1 mg/ml was added. After a one hour incubation at room temperature the plate was processed by the M-series M8/384 analyzer. Percent inhibition of the signal by unlabeled IL-10 preparations was calculated relative to the control samples. To plot the data and calculate IC₅₀ the GraphPad Prism Software was used.

[17] = molecular target: B5; test: as above
Source text: as §5, §6

[18] = molecular target: B1; test: IGEN competitive ECLA, mean ± S.D. (n); summary of Table 15
Source text: as §5, §6

[19] = molecular target: B5; test: as above
Source text: as §5, §6

[20] = molecular target: T1, recombinant hIL-10Ra (hIL-10Ra): …; test: competitive ECLA (IGEN): unlabeled IL-10 against hIL-10-biotin for FLAG-tagged hIL-10Ra
Source text: as §5, with “Biotinylated recombinant human IL-10 (hIL-10-biotin) was prepared using TFP-PEO-biotin (Pierce, Cat. No. 21219) according to manufacturer's recommendations (Pierce bulletin 0874). The rat anti hIL-10 mAb 12G8 (r12G8): JES3.12G8 and humanized anti hIL-10 mAb 12G8 (hl2G8-1) were prepared as described herein.” left out
Protocol. ⅓ serial dilutions in 50 microliters of the assay buffer were made in 96-well microtiter plate for all unlabeled IL-10 preparations (mIL-10, cyno IL-10, hIL-10 dimer, hIL-10 mono) starting with 3 μg/ml in the first well. […] Percent inhibition of the signal by unlabeled IL-10 preparations was calculated relative to the control samples. […]

[21] = molecular target: T1, recombinant hIL-10Ra (hIL-10Ra): …; test: competitive ECLA (IGEN): unlabeled IL-10 varied, competitor hIL-10-biotin
Source text: as §5, §6

[22] = molecular target: B4; test: KinExA, mean (n)

Binder | Kd [9] [nM] | Kd [10] [nM] | Kd [11] [nM] | IC50 [16] [nM] | IC50 [17] [nM] | IC50 [18] [nM] | IC50 [19] [nM] | IC50 [21] [nM] | further results
B1 | 0.659 | 0.511 | 8.6 | – | – | – | – | – | Kd [1]: 0.267 nM; Kd [2]: 0.308 nM; Kd [3]: 0.0323 nM; Kd [4]: 0.0155 nM; Kd [5]: 0.076 nM; Kd [6]: 0.025 nM; Kd [7]: 0.286 nM; Kd [8]: 0.282 nM; Kd [12]: 0.0966 nM; Kd [13]: 0.0274 nM; Kd [14]: 0.0925 nM; Kd [15]: 0.0397 nM
B2 | – | – | – | 53 | 37.9 | 53 | 38 | – | binding result [20]: no binding (tested: unlabeled IL-10 titrated from 3 µg/ml)
B3 | – | – | – | 4.9 | 6.6 | 4.9 | 6.6 | 17.6 | –
B4 | – | – | – | 4 | 4.7 | 4 | 4.7 | 2.9 | –
B5 | 0.33 | 0.277 | 7.4 | – | – | – | – | – | Kd [22]: 0.023 nM
